Laboratory results reported in patent US8389575B2, “Control of enzymatic peracid generation” (E.I. du Pont de Nemours and Company, priority 2008, dated 2013).

Experiment: Peracetic acid production by Thermotoga neapolitana perhydrolase, control by bicarbonate buffer concentration
Type: biochemical
Settings: 100 mM triacetin
Experimental: A cell extract of an E. coli transformant expressing perhydrolase from Thermotoga neapolitana (KLP18/pSW196) was prepared by passing a suspension of cell paste (20 wt % wet cell weight) in 0.05 M potassium phosphate buffer (pH 7.0) containing dithiothreitol (1 mM) twice through a French press having a working pressure of 16,000 psi (˜110 MPa). The crude extract was then centrifuged at 20,000×g to remove cellular debris, producing a clarified cell extract that was assayed for total soluble protein (Bicinchoninic Acid Kit for Protein Determination, Sigma Aldrich catalog #BCA1-KT). The clarified extract was heated for 20 min at 75° C., followed immediately by cooling in an ice/water bath. The resulting mixture was centrifuged to remove precipitated protein, and the supernatant collected and assayed for total soluble protein as before. […] The supernatant was frozen in dry ice and stored at −80° C.
Reactions (10 mL total volume) containing triacetin, hydrogen peroxide and heat-treated, centrifuged cell extract supernatant (prepared as described above) were run at 25° C. using sodium bicarbonate buffer concentrations listed in Tables 7 and 8. A control reaction for each reaction condition was run to determine the concentration of peracetic acid produced by chemical perhydrolysis of triacetin by hydrogen peroxide in the absence of added extract protein. Determination of the concentration of peracetic acid in the reaction mixtures was performed according to the method described by Karst et al., supra. Aliquots (0.040 mL) of the reaction mixture were removed at predetermined times and mixed with 0.960 mL of 5 mM phosphoric acid in water; adjustment of the pH of the diluted sample to less than pH 4 immediately terminated the reaction. The resulting solution was filtered using an ULTRAFREE® MC-filter unit (30,000 Normal Molecular Weight Limit (NMWL), Millipore cat #UFC3LKT 00) by centrifugation for 2 min at 12,000 rpm. An aliquot (0.100 mL) of the resulting filtrate was transferred to L5-mL screw cap HPLC vial (Agilent Technologies, Palo Alto, Calif.; #5182-0715) containing 0.300 mL of deionized water, then 0.100 mL of 20 mM MTS (methyl-p-tolyl-sulfide) in acetonitrile was added, the vials capped, and the contents briefly mixed prior to a 10 min incubation at ca. 25° C. in the absence of light. To each vial was then added 0.400 mL of acetonitrile and 0.100 mL of a solution of triphenylphosphine (TPP, 40 mM) in acetonitrile, the vials re-capped, and the resulting solution mixed and incubated at ca. 25° C. for 30 min in the absence of light. To each vial was then added 0.100 mL of 10 mM N,N-diethyl-m-toluamide (DEET; HPLC external standard) and the resulting solution analyzed by HPLC as described below.
Supelco Discovery C8 column (10-cm×4.0-mm, 5 μm) (cat. #569422-U) w/precolumn Supelco Supelguard Discovery C8 (Sigma-Aldrich; cat #59590-U); 10 microliter injection volume; gradient method with CH3CN (Sigma-Aldrich; #270717) and deionized water at 1.0 mL/min and ambient temperature:
The peracetic acid concentrations produced in 1 min, 5 min and 30 min when using either 250 mM or 100 mM hydrogen peroxide are listed in Table 7 and Table 8, respectively.

PAA (ppm), 1 min (NaHCO3 0 mM, initial pH 5.0, 1 min, 100 mM H2O2, 50 μg/mL heated extract total protein): 0 ppm | PAA (ppm), 1 min (NaHCO3 0 mM, initial pH 5.0, 1 min, 250 mM H2O2, 50 μg/mL heated extract total protein): 161 ppm | PAA (ppm), 5 min (NaHCO3 0 mM, initial pH 5.0, 5 min, 100 mM H2O2, 50 μg/mL heated extract total protein): 29 ppm | PAA (ppm), 5 min (NaHCO3 0 mM, initial pH 5.0, 5 min, 250 mM H2O2, 50 μg/mL heated extract total protein): 152 ppm | PAA (ppm), 30 min (NaHCO3 0 mM, initial pH 5.0, 30 min, 100 mM H2O2, 50 μg/mL heated extract total protein): 11 ppm | PAA (ppm), 30 min (NaHCO3 0 mM, initial pH 5.0, 30 min, 250 mM H2O2, 50 μg/mL heated extract total protein): 180 ppm | PAA (ppm), 1 min (NaHCO3 1.0 mM, initial pH 6.0, 1 min, 100 mM H2O2, 50 μg/mL heated extract total protein): 167 ppm | PAA (ppm), 1 min (NaHCO3 1.0 mM, initial pH 6.0, 1 min, 250 mM H2O2, 50 μg/mL heated extract total protein): 511 ppm | PAA (ppm), 5 min (NaHCO3 1.0 mM, initial pH 6.0, 5 min, 100 mM H2O2, 50 μg/mL heated extract total protein): 152 ppm | PAA (ppm), 5 min (NaHCO3 1.0 mM, initial pH 6.0, 5 min, 250 mM H2O2, 50 μg/mL heated extract total protein): 610 ppm | PAA (ppm), 30 min (NaHCO3 1.0 mM, initial pH 6.0, 30 min, 100 mM H2O2, 50 μg/mL heated extract total protein): 176 ppm | PAA (ppm), 30 min (NaHCO3 1.0 mM, initial pH 6.0, 30 min, 250 mM H2O2, 50 μg/mL heated extract total protein): 608 ppm | PAA (ppm), 1 min (NaHCO3 2.5 mM, initial pH 6.5, 1 min, 100 mM H2O2, 50 μg/mL heated extract total protein): 291 ppm | PAA (ppm), 1 min (NaHCO3 2.5 mM, initial pH 6.5, 1 min, 250 mM H2O2, 50 μg/mL heated extract total protein): 718 ppm | PAA (ppm), 5 min (NaHCO3 2.5 mM, initial pH 6.5, 5 min, 100 mM H2O2, 50 μg/mL heated extract total protein): 510 ppm | PAA (ppm), 5 min (NaHCO3 2.5 mM, initial pH 6.5, 5 min, 250 mM H2O2, 50 μg/mL heated extract total protein): 1242 ppm | PAA (ppm), 30 min (NaHCO3 2.5 mM, initial pH 6.5, 30 min, 100 mM H2O2, 50 μg/mL heated extract total protein): 488 ppm | PAA (ppm), 30 min (NaHCO3 2.5 mM, initial pH 6.5, 30 min, 250 mM H2O2, 50 μg/mL heated extract total protein): 1179 ppm | PAA (ppm), 1 min (NaHCO3 5.0 mM, initial pH 6.5, 1 min, 100 mM H2O2, 50 μg/mL heated extract total protein): 377 ppm | PAA (ppm), 1 min (NaHCO3 5.0 mM, initial pH 6.5, 1 min, 250 mM H2O2, 50 μg/mL heated extract total protein): 866 ppm | PAA (ppm), 5 min (NaHCO3 5.0 mM, initial pH 6.5, 5 min, 100 mM H2O2, 50 μg/mL heated extract total protein): 955 ppm | PAA (ppm), 5 min (NaHCO3 5.0 mM, initial pH 6.5, 5 min, 250 mM H2O2, 50 μg/mL heated extract total protein): 1894 ppm | PAA (ppm), 30 min (NaHCO3 5.0 mM, initial pH 6.5, 30 min, 100 mM H2O2, 50 μg/mL heated extract total protein): 989 ppm | PAA (ppm), 30 min (NaHCO3 5.0 mM, initial pH 6.5, 30 min, 250 mM H2O2, 50 μg/mL heated extract total protein): 1931 ppm | PAA (ppm), 1 min (NaHCO3 10 mM, initial pH 7.0, 1 min, 250 mM H2O2, 50 μg/mL heated extract total protein): 1042 ppm | PAA (ppm), 5 min (NaHCO3 10 mM, initial pH 7.0, 5 min, 250 mM H2O2, 50 μg/mL heated extract total protein): 2334 ppm | PAA (ppm), 30 min (NaHCO3 10 mM, initial pH 7.0, 30 min, 250 mM H2O2, 50 μg/mL heated extract total protein): 2384 ppm | PAA (ppm), 1 min (NaHCO3 10 mM, initial pH 8.1, 1 min, 100 mM H2O2, 50 μg/mL heated extract total protein): 418 ppm | PAA (ppm), 5 min (NaHCO3 10 mM, initial pH 8.1, 5 min, 100 mM H2O2, 50 μg/mL heated extract total protein): 1035 ppm | PAA (ppm), 30 min (NaHCO3 10 mM, initial pH 8.1, 30 min, 100 mM H2O2, 50 μg/mL heated extract total protein): 1633 ppm | PAA (ppm), 1 min (NaHCO3 25 mM, initial pH 8.1, 1 min, 100 mM H2O2, 50 μg/mL heated extract total protein): 497 ppm | PAA (ppm), 1 min (NaHCO3 25 mM, initial pH 8.1, 1 min, 250 mM H2O2, 50 μg/mL heated extract total protein): 1037 ppm | PAA (ppm), 5 min (NaHCO3 25 mM, initial pH 8.1, 5 min, 100 mM H2O2, 50 μg/mL heated extract total protein): 1319 ppm | PAA (ppm), 5 min (NaHCO3 25 mM, initial pH 8.1, 5 min, 250 mM H2O2, 50 μg/mL heated extract total protein): 2655 ppm | PAA (ppm), 30 min (NaHCO3 25 mM, initial pH 8.1, 30 min, 100 mM H2O2, 50 μg/mL heated extract total protein): 2095 ppm | PAA (ppm), 30 min (NaHCO3 25 mM, initial pH 8.1, 30 min, 250 mM H2O2, 50 μg/mL heated extract total protein): 3503 ppm
B1: Thermotoga neapolitana perhydrolase: acetyl xylan esterase with perhydrolase activity from Thermotoga neapolitana (SEQ ID NO: 14), cell extract of E. coli KLP18/pSW196 (protein, listed as Thermotoga neapolitana)
chain: MAFFDMPLEELKKYRPERYEEKDFDEFWRETLKESEGFPLDPVFEKVDFHLKTVETYDVTFSGYRGQRIKGWLLVPKLAEEKLPCVVQYIGYNGGRGFPHDWLFWPSMGYICFVMDTRGQGSGWMKGDTPDYPEGPVDPQYPGFMTRGILDPGTYYYRRVFVDAVRAVEAAISFPRVDSRKVVVAGGSQGGGIALAVSALSNRVKALLCDVPFLCHFRRAVQLVDTHPYVEITNFLKTHRDKEEIVFRTLSYFDGVNFAARAKVPALFSVGLMDTICPPSTVFAAYNHYAGPKEIRIYPYNNHEGGGSFQAIEQVKFLKRLFEEG
